Patent publication US20110165116A1

Experiments:
[1] = target: ICAM-1-Fc (Homo sapiens (Human)) (UniProt P05362); assay: laminar flow adhesion assay, human T cells on coated ICAM-1-Fc
CCR2 (mouse) = CCR2 (mouse) (UniProt P51683); assay: cell-based or functional assay
UniProt P51683, sequence (P51683 whole entry): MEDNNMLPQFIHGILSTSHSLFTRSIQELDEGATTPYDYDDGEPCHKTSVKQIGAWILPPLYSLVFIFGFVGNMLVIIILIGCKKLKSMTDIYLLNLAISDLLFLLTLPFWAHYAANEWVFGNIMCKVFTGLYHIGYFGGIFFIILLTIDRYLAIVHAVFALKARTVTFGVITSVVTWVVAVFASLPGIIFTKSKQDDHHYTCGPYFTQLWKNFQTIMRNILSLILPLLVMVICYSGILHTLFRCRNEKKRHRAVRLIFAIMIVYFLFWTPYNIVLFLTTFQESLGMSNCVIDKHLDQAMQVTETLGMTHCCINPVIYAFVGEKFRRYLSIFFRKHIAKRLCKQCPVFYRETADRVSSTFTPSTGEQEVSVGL

UniProt P05362, sequence (P05362 28-480 limits assumed): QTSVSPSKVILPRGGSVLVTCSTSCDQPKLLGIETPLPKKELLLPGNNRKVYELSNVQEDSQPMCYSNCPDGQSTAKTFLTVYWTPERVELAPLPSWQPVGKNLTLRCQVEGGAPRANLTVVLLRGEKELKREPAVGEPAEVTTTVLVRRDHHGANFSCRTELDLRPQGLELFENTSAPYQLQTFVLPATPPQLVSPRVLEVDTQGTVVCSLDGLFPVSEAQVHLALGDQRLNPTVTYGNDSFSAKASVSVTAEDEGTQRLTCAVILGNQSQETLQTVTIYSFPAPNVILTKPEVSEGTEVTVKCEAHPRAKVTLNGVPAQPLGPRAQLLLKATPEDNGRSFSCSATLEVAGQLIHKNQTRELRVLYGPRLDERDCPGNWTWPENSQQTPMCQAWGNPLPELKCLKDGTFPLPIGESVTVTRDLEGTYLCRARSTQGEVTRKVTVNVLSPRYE
LFA-1, sequence (P20701 26-1170): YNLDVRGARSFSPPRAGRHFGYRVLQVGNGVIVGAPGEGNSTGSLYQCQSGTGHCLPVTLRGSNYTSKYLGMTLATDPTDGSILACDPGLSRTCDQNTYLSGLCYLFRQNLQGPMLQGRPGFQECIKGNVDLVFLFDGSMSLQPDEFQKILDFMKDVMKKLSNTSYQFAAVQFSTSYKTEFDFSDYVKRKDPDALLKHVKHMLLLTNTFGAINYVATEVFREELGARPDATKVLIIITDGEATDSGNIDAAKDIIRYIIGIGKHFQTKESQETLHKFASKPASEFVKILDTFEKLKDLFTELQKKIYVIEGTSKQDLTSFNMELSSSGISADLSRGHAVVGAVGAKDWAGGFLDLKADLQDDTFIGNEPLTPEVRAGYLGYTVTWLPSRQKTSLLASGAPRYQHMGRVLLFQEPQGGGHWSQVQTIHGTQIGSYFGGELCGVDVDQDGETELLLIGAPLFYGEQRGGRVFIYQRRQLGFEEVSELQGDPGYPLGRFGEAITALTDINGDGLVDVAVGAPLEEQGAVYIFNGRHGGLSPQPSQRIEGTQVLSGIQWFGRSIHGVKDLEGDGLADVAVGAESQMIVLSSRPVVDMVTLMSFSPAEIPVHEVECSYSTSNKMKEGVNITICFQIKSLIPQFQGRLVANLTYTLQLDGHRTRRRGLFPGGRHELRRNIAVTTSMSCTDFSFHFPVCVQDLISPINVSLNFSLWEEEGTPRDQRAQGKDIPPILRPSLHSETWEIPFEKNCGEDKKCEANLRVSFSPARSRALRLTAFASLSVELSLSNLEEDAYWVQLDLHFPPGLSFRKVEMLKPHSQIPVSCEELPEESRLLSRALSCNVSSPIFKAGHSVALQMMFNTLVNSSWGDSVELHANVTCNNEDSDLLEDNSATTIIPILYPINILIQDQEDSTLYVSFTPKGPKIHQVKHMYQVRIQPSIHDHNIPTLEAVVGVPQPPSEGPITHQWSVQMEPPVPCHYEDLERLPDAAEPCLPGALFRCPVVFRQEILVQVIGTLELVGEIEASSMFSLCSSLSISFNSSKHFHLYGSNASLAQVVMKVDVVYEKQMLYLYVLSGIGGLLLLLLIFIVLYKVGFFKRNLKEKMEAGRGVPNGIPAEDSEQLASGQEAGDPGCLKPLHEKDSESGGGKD
LFA-1, sequence (P05107 23-769, further chain): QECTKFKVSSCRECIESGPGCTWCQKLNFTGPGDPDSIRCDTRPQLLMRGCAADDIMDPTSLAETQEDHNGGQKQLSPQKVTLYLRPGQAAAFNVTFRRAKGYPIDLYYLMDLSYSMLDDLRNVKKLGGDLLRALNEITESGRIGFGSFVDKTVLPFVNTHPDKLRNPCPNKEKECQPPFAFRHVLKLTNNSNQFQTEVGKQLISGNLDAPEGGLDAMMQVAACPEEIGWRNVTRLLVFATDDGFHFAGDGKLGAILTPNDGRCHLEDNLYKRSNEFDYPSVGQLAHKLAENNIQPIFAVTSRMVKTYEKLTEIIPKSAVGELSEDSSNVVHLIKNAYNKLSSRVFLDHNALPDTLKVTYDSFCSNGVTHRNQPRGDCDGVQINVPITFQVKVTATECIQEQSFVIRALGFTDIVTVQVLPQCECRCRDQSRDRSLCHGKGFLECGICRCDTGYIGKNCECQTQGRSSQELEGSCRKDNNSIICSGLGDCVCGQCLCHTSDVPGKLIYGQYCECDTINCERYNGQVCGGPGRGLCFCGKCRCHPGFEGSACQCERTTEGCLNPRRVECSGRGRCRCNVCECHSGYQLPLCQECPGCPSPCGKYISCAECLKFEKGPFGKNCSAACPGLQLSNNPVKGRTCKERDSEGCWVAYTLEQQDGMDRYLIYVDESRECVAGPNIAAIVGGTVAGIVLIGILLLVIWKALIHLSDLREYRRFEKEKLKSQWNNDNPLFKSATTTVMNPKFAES

Row | percent of cellular tethers to ICAM-1 blocked by LFA-1 blockers [1] | decrease in actin polymerization of naive T cells induced by CXCL12 or CCL21 (FITC-phalloidin, FACS) (CCR2 (mouse)) | decrease in migration of naive T cells in a Transwell assay towards CXCL12 or CCL21 after pretreatment with CCL2 (0.1 ng/ml) (CCR2 (mouse)) | Substance
1 | > 90% |  |  | LFA-1 (from UniProt P20701 26-1170; P05107 23-769) (receptor; other documents disagree on this pair)
2 |  | 40 to 50% | 40 to 50% | CCL2 (ligand)
